Like-named read-outs stand apart in the source and are kept apart here.
B1: sel36 (dsDNA)
DNA 1: GATTCACAGCTGATTCACAGCATCTAG
DNA 2: CTAGATGCTGTGAATCAGCTGTGAATC
B2: sel36m (dsDNA)
DNA 1: GATTCACAGCTGATACACAGGATCTAG
DNA 2: CTAGATCCTGTGTATCAGCTGTGAATC

Key:
[1] = target: T1, PhoP (Mycobacterium tuberculosis, UniProt P71814 1-247); test: ITC
[2] = target: T1, PhoP; test: ITC; remark: listed apart in the source

Binder	Kd [1] [nM]	Kd [2] [nM]
B1	8.03 ± 3.42	
B2		32.3 ± 4.12
